We go through 20 sequences from the DeepSol protein solubility set.

This series is described as follows: soluble on expression in E. coli; label from the status in PepcDB or PDB records.
For “MHHHHHHAMGIPGHAFSKIKVKQPVVELDGDEMTRIIWDKIKKKLILPYLDVDLKYYDLSVESRDATSDKITQDAAEAIKKYGVGIKCATITPDEARVKEFNLHKMWKSPNGTIRNILGGTVFREPIVIPRIPRLVPRWEKPIIIGRHAHGDQYKATDTLIPGPGSLELVYKPSDPTTAQPQTLKVYDYKGSGVAMAMYNTDESIEGFAHSSFKLAIDKKLNLFLSTKNTILKKYDGRFKDIFQEVYEAQYKSKFEQLGIHYEHRLIDDMVAQMIKSKGGFIMALKNYDGDVQSDIVAQGFGSLGLMTSILVTPDGKTFESEAAHGTVTRHYRKYQKGEETSTNSIASIFAWSRGLLKRGELDNTPALCKFANILESATLNTVQQDGIMTKDLALACGNNERSAYVTTEEFLDAVEKRLQKEIKSIE”, the “soluble on expression in E. coli” value was “soluble”.

For the sequence “MAHHHHHHMPLCASIPATVDTDTNTRALYLDDLDKCMKNFSSALASTMNAYQNLLTAFDQVAQVYGNVAQECGDEVRKPVGEFRDGMRDLKDKGGFETFNHEIHVGTIAVIEPVKSDLKKALKSLKCLRLKQKEYDAVRYDLEQTEKSYAKKNKPLVTSSSYKKTLAKRDKVKTSYDASREAFGEEINALQATTKSVLLQSLNNYLHCTAAFCGQLEATMNGYRTDVDHHGSTTFTNDQMDKLKEKAEAESMARRAKRKSEASNPFQTGYDVTSNNSHRNLPSVDDGLYQKKDSLVDTESVNRYPNAEFAPPMQNGGDDNFTLREQYDDGAPGDADDVNPLVDANNDE”, the “soluble on expression in E. coli” value is reported as “soluble”.

On to “GRRPRTAFTQNQIEVLENVFRVNCYPGIDILEDLAQKLNLELDRIQIWFQNRRAKLKRSHRESQFLM”, for which the “soluble on expression in E. coli” value is given as “soluble”. The same measure for “SNAMKNYTLISPCFFGMEKMLAREITNLGYEIIKTEDGRITYKTDEFGIAKSNMWLRCAERVHLKIAEFEAKSFDELFENTKRINWSRYIPYGAQFPISKASSIKSKLYSTPDVQAIVKKAIVESLKKSYLEDGLLKEDKEKYPIFVFIHKDKVTISIDTTGDALHKRGYREKANKAPIRETLAAGLIYLTPWKAGRVLVDPMCGSGTILIEAAMIGINMAPGLNREFISEKWRTLDKKIWWDVRKDAFNKIDNESKFKIYGYDIDEESIDIARENAEIAGVDEYIEFNVGDATQFKSEDEFGFIITNPPYGERLEDKDSVKQLYKELGYAFRKLKNWSYYLITSYEDFEYEFGQKADKKRKLYNGMLKTNFFQYPGPKPPRNNK”: “soluble”. The value for “MPLLYLNTRECRWYLMGEGEMKKIAAISLISIFLISGCAVHNDETSIGKFGLAYKSNIQRKLDNQYYTEAEASLARGRISGAENIVKNDAAHFCVTQGKKMQIVDLKTEGAGLHGVARLTFKCGE” was “not soluble”; that for “MVTLILLAGGSGTRASLNLPKQYYRIEEKMVIEYTLENVSRVKGVDNIILVSNPRFMDTALELKESFPKIKDVAKGGRTRNESIYNGFMKVPQKESKILVHDAVRPFTPRWVFERIISLLDERDVITTVNPITGNLIELDNGKVKRIYDRSKFAIGEAPTGYRYGALKKTLEVAVSNGTLNEIPHDIVLAMNAGFDVYVLPCNCFNLKITFKEDIEIARTLIKMLEERE” was “soluble”. Consider “MSQARPATVLGAMEMGRRMDVTSSSASVRAFLQRGHTEIDTAFVYANGQSETILGDLGLGLGRSGCKVKIATKAAPMFGKTLKPADVRFQLETSLKRLQCPRVDLFYLHFPDHGTPIEETLQACHQLHQEGKFVELGLSNYVSWEVAEICTLCKKNGWIMPTVYQGMYNAITRQVETELFPCLRHFGLRFYAFNPLAGGLLTGRYKYQDKDGKNPESRFFGNPFSQLYMDRDWKEEHFNGIALVEKALKTTYGPTAPSMISAAVRWMYHHSQLKGTQGDAVILGMSSLEQLEQNLALVEEGPLEPAVVDAFDQAWNLVAHECPNYFR”, for which the “soluble on expression in E. coli” value is given as “soluble”. The same measure for “MREEDRRGGVKLSLTRLFLHERTVEIILRILKAEENGEKIYPLQISTDIGSPYSYVSKVLGELEKCSLVESRPEGRMRVVSLTPYGKVVASMLRDLYTELEKDFNSRMKLDILKDVYSNANGDVRVYLPVMAELEMLAKSTNDGFVVEEAKKLISEVKRKIEGAK”: “soluble”.

“MGSDKIHHHHHHMNKKPLVSVYIPTHNRAELLSNAVKSVINQTYKNIEIIICNDGSGDNTDDVVNKLQKEYKDIPFVYLKNDSPMGACFSRNRCIAAASGYYLTGLDDDDYFLPNRIESLIKVCNERKIDLVCSNLIFKDGNKLKRGKNNSGVITSIDMGYENLVGNQLLTRLSYFEDVGGFDTNFPAWQDYDLWYRIIMKFGPCIKTNEATYVMDVENDRKRISTSSKAHIGYRSFIEKHSETLSEEMKSSLFIRDLINRNKKIPLKTLLSSGRKVASFKHNMRLCFPVVNSIAAFVREIKK”: the “soluble on expression in E. coli” value is on record as “not soluble”. The value for “METKPYLIALDLDGTLLKDDKTISENTLHTIQRLKDDGHYVCISTGRPYRSSSMYYQQMELTTPIVNFNGAFVHHPQDDSWGRYHTSLPLDVVKQLVDISESYNVHNVLAEVIDDVYFHYHDEHLIDAFNMNTTNVTVGDLRENLGEDVTSVLIHAKEEDVPAIRSYLSDVHAEVIDHRRWAAPWHVIEIIKSGMNKAVGLQKISDYYGVPRERIIAFGDEDNDLEMLEFAGCGVAMGNGIDAVKQIANRTTATNEEDGVARFLKEYFSL” was “soluble”; that for “MTVYLRKAEPSDLPDILAIIEDGRRTLQKSGIPQWQNGDGPNQEILAKDIDQQTCYILMVEDALAGVGVLCSEIDPAYEAIFNGSWQPHSQTTYTAIHCVALKSSFQGQGLALVLLRSLVTAARLQGATDIRIDTHPQNLAMQHLIKKAGFVYQGDVILDVNDGERYAYQMILK” was “not soluble”. The same measure for “MNYEIVCGIETHIELATKTKIFCGCTTEFGGEPNTHCCPVCTGQPGSLPILNQKVVEYAIKAGLALNCKINTKSHMDRKNYVYPDLPKAYQISQYDEPLCEKGYIELDSGKRIGITRIHIEEDAGKLVHENGYTYIDYNRSGVPLIEIVSEPDISSAEEAREYAEKLQLIMRYIGISDCKMQEGSMRCDVNLSLRKPGDSRFGVRTEIKNINSLSFIQKAVMAEAERQADILDAGGTVVQQTMRYDEATNSVSPMRDKENSDDYRYFPDPDILRFSINDEKVEEIRASLPELPFDKLKRYVNVLGLPEATARQIFRYRKVAEFFEGALAEGASVKNAANLIVGTIFSNMDTEEEKELFDIRISSAQFAALVKLADEKKINIGVAQSTLQKMLESGKPVEEFIKPEDLAGISDEELESLCKEAIDANPKAVADVRSGKDKAINVMFGYIMKKTGGKADIRKVEVLLRKLIGQ”: “soluble”. For “MGSDKIHHHHHHLDGQALKQAVTPYFAGVLHEGLSRLKAEVYQEMEEIRLRAAQPLLLKIGESEWGLTSRGELTKKLPEAINASREDLYRTIASISDNSLYALEEEIRRGFITIPGGHRVGLAGQVIVQAAGIKGIKEFSSICFRLAREKKGCARTILPHIISTGTIVNTLIISPPRCGKTTILRDIARSISTGSSACPPHNIAIIDERSEIAGTHRGLAQLDVGIRSDVLDACPKSWGMMMAIRSLSPQVLIADEIGRKEDVEALQECVNAGVAVICSIHARNLEELSKRPLIKKLLSQGAFRLGVVLSRRNGPGTVEEIIRWD”, the “soluble on expression in E. coli” value is recorded as “not soluble”.

In the case of “MSLSRTIEDRAAEFAIQPSYHALGGEFVRAPVETLREMLGAFGISLDGPPPDRAPPEMRAPDGYRCFLPEGEMRRWGIAAQLYQLRSERNWGIGDFADLCDLARIGGAAGADFIGLNPLHALFLANPAHTSPFSPSNRRFLNPLYIAVDRVPGYRPEFAPEGLGQLRAPDLVDYPAVAAAKLGALRRLWREGPDDAMGFMRFCAEGGELLRRHALFEAISGQMVADGYGAGWLGWPVEFHDAEGQAVIDFADARGDEVGFHLWLQWIADRQLEEARDACRAAGMKIGLYLDFAVGEVPDGSSTWSDPSLAVPGLRIGASPDWFNAQGQDWGLAPLSPVKLADLRAAPFGALMQDATRRAGALRIDHAMGVWQLFLIPDGMGAPQGTYVRYPIEDMLRALAEASCRNRTIVIGEDLGNVPDGFRELMARMNILSYRILLFERHDHGYIAPEHYPREALVCLSTHDLPTFRGWWRGDDVAIRRDFRLISDEAARQQGDFRWTERRQLLEDLARAGLMAWDEIDRIGPDDPPEALVVAVHRHLARAPSRLFAVRIEDMAGEVAPVNVPSTVDEHPNWRRRLGVPLEALGETALFRGIAGALEAEREGHHHHHH”, the “soluble on expression in E. coli” value is listed as “soluble”. The value for “GMGGAALPDNGWPADRIDTESAHSARIYDYIIGGKDYYPADKEAGDAMSREWPALPVHMRANRDWMNRAVAHLAKEAGIRQFLDIGTGIPTSPNLHEIAQSVAPESRVVYVDNDPIVLTLSQGLLASTPEGRTAYVEADMLDPASILDAPELRDTLDLTRPVALTVIAIVHFVLDEDDAVGIVRRLLEPLPSGSYLAMSIGTAEFAPQEVGRVAREYAARNMPMRLRTHAEAEEFFEGLELVEPGIVQVHKWHPDAATADGIRDEDIAMYGAVARKP” was “soluble”; that for “MSLALEVNMLTGGPTGTYIQIGRDIAKAASACGIEMTVHESAGSLENFLGVRQRPRTQFGIVQSDVLEYLKTFAADDPEVSRAIFGVRIAFPLYDEEVHLLARREIGSLKDLDGKRVSIGVENSGTFLTASLVLDLAEVAPGERRMMNQDDSLKALLAGDIDAFFYVAGAPAKIFASPEIDGERFHLVPVAEEVLRQVYKPTQIPAGSYPFQTGPVDAIAVKAVLMTYGYDPKRNAYHRESCKAVSDIAHVVSTHFPELQQSGHPKWKQVNLTDLPAGWDIGECVNAGLEPGYRLPCDPPEPAVAAPADASAESEANRAYRRQICAVVGEGHHHHHH” was “soluble”; that for “MFQQQNDWETRENAFAAFAMGPLTDFWRQREEAEFIGVGNIPVRFVRFRNDSNDRTIVICPGRIESYVKYAELAYDLFHLGFDIFIIDHRGQGRSGRMLSDPHRGHVDHFNDYVEDLAAFWQQEIEPGPWRKRYILAHSMGGAIATLFLQRHRVRCDAIALTAPMFGIVIRLPSFMVRHILDWAEGHQRIREDYAIGTGQWRALPFGMNALTHSRQRYQRNLRFYADEPQLRVGGPTWHWVREGILAGEQVLAGASDDTTPTLLIQAEEERVVDNRTHDRFCEIRAAAGYPCEGGKPLVIKGAYHEILFEKDAMRSVALNAIVEFFNKPNLSSGNRFA” was “not soluble”. The value for “MKNLERLFAEKLLKIKAIKLQPANPFTWASGWKSPFYCDNRKTLSYPSLRNFVKIEITRLILERFGQVDAIAGVATGAIPQGALVADALNLPFVYVRSTPKDHGLENLIEGELRPGMKVVVVEDLISTGGSSLKAVEAIRRDGCEVIGMVAAYTYGFPVAEEAFKNAKVPLVTLTNYEAVLDVALRTGYIEEEDIATLNDWRKDPAHWDAGK” was “soluble”; that for “MCKHCGAAVLFVKDDRWHVFDAKPSEEGEWRIRSRWAANVAAEKTTVTRLTESKLRRARLMGEPLFRPHFQTCPANPRAKILQEKRRHG” was “not soluble”; that for “MGSDKIHHHHHHMKVSSKPSLTWEILTSRADRPRQEVFPFNTGRCEYFYSARYALAAALDALKLSPQQSILMPSYNCWVEVEPAVRSGAKIDWYRVKTDFSIDEDDLLARIRPETAAIFVIHYLGFPQRLENIHRICTERGIVLIEDCAHALLSNDGDVPLGLTGDMAIFSIRKTVPIPDGGCLLINNPAFSVNRPRRVRPNLFATYFVVSEMLARGSTTEPKRVNQMAYSCNFAFARLARMGLRGIHKIFQDHGDYLVYPSGNHFNEQVKHWMMSDVSSAILRGTEFQRIKERRRANFLHLLDKLIMNDRITLPILSLPEGVSPLFFPVIVQDRDRVYRQLKDQGLSGHDWWGDFHPAVPWDKYPDAVYLKTNVFGFPVHQDLSRESLGIMLAEFSQCL” was “not soluble”.
